# Results from patent publication US20210032343A1 (BEIJING HANMI PHARMACEUTICAL, published 2021).
# Target: recombinant human PD-1 (product No. 10377-H08H, Beijing Yiqiao Shenzhou) (human, UniProt Q15116 25-167)
# Assay: ELISA, recombinant human PD-1 coated at 1 ug/mL, control antibody, anti-human IgG-HRP detection
# Description: The coating concentration was 1 μg/mL. The coating amount was 100 μL per well, and the coating was performed at 4° C. overnight. PBST washing was performed five times. The result was sealed at 300 μL/well using PBST containing 1% BSA, and subjected to incubation for 1 hour at 25° C. PBST washing was performed five times. […] PBST washing was performed five times. Subsequently, 100 μL of the horseradish peroxidase-labeled anti-human IgG antibody (product No. AP309P, available from Chemicon) diluted at 1:2,000 in PBST containing 1% BSA was then added to each well, and the cells were incubated for 1 hour at 25° C. PBST washing was performed five times. 100 μL of the colorimetric substrate TMB was added to each well, and color development was allowed to occur for 10 minutes at room temperature. Color development was stopped by adding 100 μL of 1 M H₂SO₄ to each well. The absorbance at 450 nm was read on a microplate reader.
# Chain of recombinant human PD-1 (product No. 10377-H08H, Beijing Yiqiao Shenzhou) (Q15116 25-167 limits assumed): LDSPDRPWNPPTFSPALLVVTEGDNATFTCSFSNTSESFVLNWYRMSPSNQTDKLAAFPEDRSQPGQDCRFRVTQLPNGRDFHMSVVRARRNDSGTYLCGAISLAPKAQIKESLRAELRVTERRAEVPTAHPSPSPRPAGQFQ
binder,measurement,value
"PD-1 monoclonal antibody (antibody, V domains shown, also called bivalent monoclonal antibody (anti-PD-1)) VH: QVQLVQSGAEVKKPGSSVKVSCKASGGTFSSTAISWVRQAPGQGLEWMGGIWPSFGTASYAQKFQGRVTITADESTSTAYMELSSLRSEDTAVYYCARAEYSSTGIFDYWGQGTLVTVSS VL: DIQMTQSPSSVSASVGDRVTITCRASQGISSWLAWYQQKPGKAPKLLISAASSLQSGVPSRFSGSGSGTDFTLTISSLQPEDFATYYCQQANHLPFTFGGGTKVEIK",binding result,binds
